From article PMC10786891, “Massively parallel profiling of RNA-targeting CRISPR-Cas13d”

T1: EsCas13d, nuclease-dead (Eubacterium siraeum, UniProt B0MS50, R295A;H300A;R849A;H854A)
T1 sequence: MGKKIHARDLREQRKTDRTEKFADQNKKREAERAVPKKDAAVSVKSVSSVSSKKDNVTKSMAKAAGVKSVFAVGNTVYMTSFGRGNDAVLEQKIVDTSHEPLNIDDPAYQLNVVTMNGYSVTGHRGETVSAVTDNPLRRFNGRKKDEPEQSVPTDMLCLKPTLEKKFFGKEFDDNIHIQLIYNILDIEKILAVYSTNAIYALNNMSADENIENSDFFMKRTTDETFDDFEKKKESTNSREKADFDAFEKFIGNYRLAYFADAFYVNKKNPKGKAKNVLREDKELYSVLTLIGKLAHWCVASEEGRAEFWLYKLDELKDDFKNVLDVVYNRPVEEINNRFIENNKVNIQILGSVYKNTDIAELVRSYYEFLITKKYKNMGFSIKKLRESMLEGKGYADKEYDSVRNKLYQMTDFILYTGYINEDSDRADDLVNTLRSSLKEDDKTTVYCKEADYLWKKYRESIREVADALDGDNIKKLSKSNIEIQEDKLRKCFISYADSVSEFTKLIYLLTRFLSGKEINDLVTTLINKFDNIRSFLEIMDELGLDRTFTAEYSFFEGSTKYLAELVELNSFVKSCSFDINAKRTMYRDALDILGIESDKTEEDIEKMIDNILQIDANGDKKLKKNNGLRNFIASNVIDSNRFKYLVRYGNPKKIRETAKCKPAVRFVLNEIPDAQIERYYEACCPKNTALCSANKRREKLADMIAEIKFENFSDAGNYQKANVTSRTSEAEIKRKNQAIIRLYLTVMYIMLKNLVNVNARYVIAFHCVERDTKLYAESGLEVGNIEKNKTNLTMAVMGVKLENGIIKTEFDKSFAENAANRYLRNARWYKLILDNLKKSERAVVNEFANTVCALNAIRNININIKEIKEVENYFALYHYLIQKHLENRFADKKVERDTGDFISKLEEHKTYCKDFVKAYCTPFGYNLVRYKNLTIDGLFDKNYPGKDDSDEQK

B1: target 1 MT 5'PFS AAA 3'PFS UAG (mixed)
RNA 1: CACCCGUGCAAAAAUGCAGGGGUCUAAAACUGAGCGGAUAACCUCUCUAUGG
RNA 2: GGGAAUGGAUCCACAUCUACGAAUUCAAACCAUAGAGAGGUUAUCCGCUCAUAGAGAUCGGAAGAGCACACGU
B2: target 1 MT 5'PFS AGU 3'PFS ACG (mixed)
RNA 1: CACCCGUGCAAAAAUGCAGGGGUCUAAAACUGAGCGGAUAACCUCUCUAUGG
RNA 2: GGGAAUGGAUCCACAUCUACGAAUUCAGUCCAUAGAGAGGUUAUCCGCUCAACGAGAUCGGAAGAGCACACGU
B3: target 1 MT 5'PFS GAC 3'PFS CAA (mixed)
RNA 1: CACCCGUGCAAAAAUGCAGGGGUCUAAAACUGAGCGGAUAACCUCUCUAUGG
RNA 2: GGGAAUGGAUCCACAUCUACGAAUUCGACCCAUAGAGAGGUUAUCCGCUCACAAAGAUCGGAAGAGCACACGU
B4: target 1 MT 5'PFS UCC 3'PFS UGA (mixed)
RNA 1: CACCCGUGCAAAAAUGCAGGGGUCUAAAACUGAGCGGAUAACCUCUCUAUGG
RNA 2: GGGAAUGGAUCCACAUCUACGAAUUCUCCCCAUAGAGAGGUUAUCCGCUCAUGAAGAUCGGAAGAGCACACGU
B5: target 1 MT 5'PFS GGA 3'PFS CUG (mixed)
RNA 1: CACCCGUGCAAAAAUGCAGGGGUCUAAAACUGAGCGGAUAACCUCUCUAUGG
RNA 2: GGGAAUGGAUCCACAUCUACGAAUUCGGACCAUAGAGAGGUUAUCCGCUCACUGAGAUCGGAAGAGCACACGU
B6: target 1 MT 5'PFS UAA 3'PFS UCA (mixed)
RNA 1: CACCCGUGCAAAAAUGCAGGGGUCUAAAACUGAGCGGAUAACCUCUCUAUGG
RNA 2: GGGAAUGGAUCCACAUCUACGAAUUCUAACCAUAGAGAGGUUAUCCGCUCAUCAAGAUCGGAAGAGCACACGU
B7: target 1 MT 5'PFS UCC 3'PFS UGC (mixed)
RNA 1: CACCCGUGCAAAAAUGCAGGGGUCUAAAACUGAGCGGAUAACCUCUCUAUGG
RNA 2: GGGAAUGGAUCCACAUCUACGAAUUCUCCCCAUAGAGAGGUUAUCCGCUCAUGCAGAUCGGAAGAGCACACGU
B8: target 1 MT 5'PFS AGU 3'PFS ACC (mixed)
RNA 1: CACCCGUGCAAAAAUGCAGGGGUCUAAAACUGAGCGGAUAACCUCUCUAUGG
RNA 2: GGGAAUGGAUCCACAUCUACGAAUUCAGUCCAUAGAGAGGUUAUCCGCUCAACCAGAUCGGAAGAGCACACGU
B9: target 1 U3G,G5C (mixed)
RNA 1: CACCCGUGCAAAAAUGCAGGGGUCUAAAACUGAGCGGAUAACCUCUCUAUGG
RNA 2: GGGAAUGGAUCCACAUCUACGAAUUCGUACCAUAGAGAGGUUAUCCCCGCACCGAGAUCGGAAGAGCACACGU
B10: target 1 MT 5'PFS CCU 3'PFS UCA (mixed)
RNA 1: CACCCGUGCAAAAAUGCAGGGGUCUAAAACUGAGCGGAUAACCUCUCUAUGG
RNA 2: GGGAAUGGAUCCACAUCUACGAAUUCCCUCCAUAGAGAGGUUAUCCGCUCAUCAAGAUCGGAAGAGCACACGU
B11: target 1 MT 5'PFS UAA 3'PFS UCC (mixed)
RNA 1: CACCCGUGCAAAAAUGCAGGGGUCUAAAACUGAGCGGAUAACCUCUCUAUGG
RNA 2: GGGAAUGGAUCCACAUCUACGAAUUCUAACCAUAGAGAGGUUAUCCGCUCAUCCAGAUCGGAAGAGCACACGU
B12: target 1 MT 5'PFS CUC 3'PFS UGC (mixed)
RNA 1: CACCCGUGCAAAAAUGCAGGGGUCUAAAACUGAGCGGAUAACCUCUCUAUGG
RNA 2: GGGAAUGGAUCCACAUCUACGAAUUCCUCCCAUAGAGAGGUUAUCCGCUCAUGCAGAUCGGAAGAGCACACGU
B13: target 1 MT 5'PFS CCA 3'PFS UGC (mixed)
RNA 1: CACCCGUGCAAAAAUGCAGGGGUCUAAAACUGAGCGGAUAACCUCUCUAUGG
RNA 2: GGGAAUGGAUCCACAUCUACGAAUUCCCACCAUAGAGAGGUUAUCCGCUCAUGCAGAUCGGAAGAGCACACGU
B14: target 1 MT 5'PFS GAC 3'PFS CAC (mixed)
RNA 1: CACCCGUGCAAAAAUGCAGGGGUCUAAAACUGAGCGGAUAACCUCUCUAUGG
RNA 2: GGGAAUGGAUCCACAUCUACGAAUUCGACCCAUAGAGAGGUUAUCCGCUCACACAGAUCGGAAGAGCACACGU
B15: target 1 MT 5'PFS CCA 3'PFS UGA (mixed)
RNA 1: CACCCGUGCAAAAAUGCAGGGGUCUAAAACUGAGCGGAUAACCUCUCUAUGG
RNA 2: GGGAAUGGAUCCACAUCUACGAAUUCCCACCAUAGAGAGGUUAUCCGCUCAUGAAGAUCGGAAGAGCACACGU
B16: target 1 MT 5'PFS UAA 3'PFS UCU (mixed)
RNA 1: CACCCGUGCAAAAAUGCAGGGGUCUAAAACUGAGCGGAUAACCUCUCUAUGG
RNA 2: GGGAAUGGAUCCACAUCUACGAAUUCUAACCAUAGAGAGGUUAUCCGCUCAUCUAGAUCGGAAGAGCACACGU
B17: target 1 insA 3' of 19,insA 3' of 7 (mixed)
RNA 1: CACCCGUGCAAAAAUGCAGGGGUCUAAAACUGAGCGGAUAACCUCUCUAUGG
RNA 2: GGGAAUGGAUCCACAUCUACGAAUUCGUACCAUAAGAGAGGUUAUCACGCUCACCGAGAUCGGAAGAGCACACGU
B18: target 1 MT 5'PFS GGG 3'PFS UAU (mixed)
RNA 1: CACCCGUGCAAAAAUGCAGGGGUCUAAAACUGAGCGGAUAACCUCUCUAUGG
RNA 2: GGGAAUGGAUCCACAUCUACGAAUUCGGGCCAUAGAGAGGUUAUCCGCUCAUAUAGAUCGGAAGAGCACACGU
B19: target 1 MT 5'PFS AGU 3'PFS ACA (mixed)
RNA 1: CACCCGUGCAAAAAUGCAGGGGUCUAAAACUGAGCGGAUAACCUCUCUAUGG
RNA 2: GGGAAUGGAUCCACAUCUACGAAUUCAGUCCAUAGAGAGGUUAUCCGCUCAACAAGAUCGGAAGAGCACACGU
B20: target 1 MT 5'PFS ACC 3'PFS UUG (mixed)
RNA 1: CACCCGUGCAAAAAUGCAGGGGUCUAAAACUGAGCGGAUAACCUCUCUAUGG
RNA 2: GGGAAUGGAUCCACAUCUACGAAUUCACCCCAUAGAGAGGUUAUCCGCUCAUUGAGAUCGGAAGAGCACACGU
B21: target 1 MT 5'PFS UCA 3'PFS CGA (mixed)
RNA 1: CACCCGUGCAAAAAUGCAGGGGUCUAAAACUGAGCGGAUAACCUCUCUAUGG
RNA 2: GGGAAUGGAUCCACAUCUACGAAUUCUCACCAUAGAGAGGUUAUCCGCUCACGAAGAUCGGAAGAGCACACGU
B22: target 1 MT 5'PFS GAC 3'PFS CAU (mixed)
RNA 1: CACCCGUGCAAAAAUGCAGGGGUCUAAAACUGAGCGGAUAACCUCUCUAUGG
RNA 2: GGGAAUGGAUCCACAUCUACGAAUUCGACCCAUAGAGAGGUUAUCCGCUCACAUAGAUCGGAAGAGCACACGU
B23: target 1 MT 5'PFS UCC 3'PFS UGU (mixed)
RNA 1: CACCCGUGCAAAAAUGCAGGGGUCUAAAACUGAGCGGAUAACCUCUCUAUGG
RNA 2: GGGAAUGGAUCCACAUCUACGAAUUCUCCCCAUAGAGAGGUUAUCCGCUCAUGUAGAUCGGAAGAGCACACGU
B24: target 1 MT 5'PFS UGG 3'PFS CCG (mixed)
RNA 1: CACCCGUGCAAAAAUGCAGGGGUCUAAAACUGAGCGGAUAACCUCUCUAUGG
RNA 2: GGGAAUGGAUCCACAUCUACGAAUUCUGGCCAUAGAGAGGUUAUCCGCUCACCGAGAUCGGAAGAGCACACGU

These binders were tested against T1, EsCas13d, nuclease-dead (assay: crRNA (strand 1, pre-loaded); Mg2+; 40 mM Tris-HCl pH 7.5, 150 mM NaCl, 6 mM MgCl2, 1 mM DTT, 0.1% Tween-20, 0.2 mg/ml BSA; 25 C; 10 min per concentration, then washed). Conditions: tags: His6-TwinStrep-SUMO cleaved; N-terminal SNAP kept (SNAP-Surface 488); label: 3' end held by stalled T7 RNA polymerase.

B1 was tested. Which Kd did it give?
Its Kd is 12.9 ± 2.25 nM.

B2 was tested. Which Kd did it give?
The Kd was 36 ± 10 nM.

B3 was tested. Which Kd did it give?
The Kd was 25.5 ± 8.5 nM.

Which Kd does the source give for B4 here?
The Kd was roughly 29 nM.

B5 was tested. Which Kd did it give?
Its Kd is 11.3 ± 1.9 nM.

For B6, which Kd is on record?
Its Kd is 32 ± 9.5 nM.

How did the Kd turn out when B7 was run?
Its Kd is roughly 12.5 nM.

B8 was tested. Which Kd did it give?
The Kd was roughly 80 nM.

With B9 as the binder, how does the Kd read?
Its Kd is 16.7 ± 1.1 nM.

For B10, which Kd is on record?
The Kd was 26.5 ± 10.5 nM.

For B11, which Kd is on record?
The Kd was 82.5 ± 27.5 nM.

How did the Kd turn out when B12 was run?
The Kd was roughly 60 nM.

How did the Kd turn out when B13 was run?
The Kd was 3.55 ± 0.8 nM.

With B14 as the binder, how does the Kd read?
The Kd was 61 ± 21.5 nM.

With B15 as the binder, how does the Kd read?
Its Kd is 13 ± 4.5 nM.

With B16 as the binder, how does the Kd read?
Its Kd is 44.5 ± 15 nM.

Which Kd does the source give for B17 here?
Its Kd is 15.2 ± 1.4 nM.

With B18 as the binder, how does the Kd read?
Its Kd is 16.7 ± 3.25 nM.

For B19, which Kd is on record?
The Kd was 65 ± 29 nM.

B20 was tested. Which Kd did it give?
Its Kd is 7.35 ± 3.35 nM.

With B21 as the binder, how does the Kd read?
The Kd was 12.2 ± 3.45 nM.

How did the Kd turn out when B22 was run?
The Kd was 21.5 ± 8 nM.

For B23, which Kd is on record?
Its Kd is roughly 70 nM.

How did the Kd turn out when B24 was run?
The Kd was 47 ± 9.5 nM.
